From paper PMC5674885 (The Journal of Cell Biology, 2017)

Target: T1, kindlin-2 (recombinant, full length, amino acids 1–680) (mouse, UniProt Q8CIB5 1-680)
T1 sequence (looked up): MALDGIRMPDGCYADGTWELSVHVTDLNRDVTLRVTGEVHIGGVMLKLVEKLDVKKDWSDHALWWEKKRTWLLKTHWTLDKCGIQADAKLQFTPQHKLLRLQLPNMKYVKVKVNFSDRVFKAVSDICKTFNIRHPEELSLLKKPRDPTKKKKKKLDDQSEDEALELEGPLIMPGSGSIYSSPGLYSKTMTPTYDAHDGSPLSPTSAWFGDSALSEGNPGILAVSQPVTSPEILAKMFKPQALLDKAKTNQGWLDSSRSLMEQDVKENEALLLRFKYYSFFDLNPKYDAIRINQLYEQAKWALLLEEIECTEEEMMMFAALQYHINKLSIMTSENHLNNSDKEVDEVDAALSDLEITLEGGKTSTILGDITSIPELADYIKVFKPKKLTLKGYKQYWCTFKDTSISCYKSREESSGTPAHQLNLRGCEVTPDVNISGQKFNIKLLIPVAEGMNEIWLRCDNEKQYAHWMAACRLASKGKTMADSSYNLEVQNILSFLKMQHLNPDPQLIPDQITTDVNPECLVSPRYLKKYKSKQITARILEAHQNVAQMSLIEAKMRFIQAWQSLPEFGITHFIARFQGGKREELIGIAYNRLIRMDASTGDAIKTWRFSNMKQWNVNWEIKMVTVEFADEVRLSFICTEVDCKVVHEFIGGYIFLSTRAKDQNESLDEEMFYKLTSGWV
Test: ITC

Kd: 205 ± 59 nM
B1: paxillin (recombinant, full length, amino acids 1–557) (natural protein)
chain: not shown
modifications: Atto520 label (NHS ester) in the ultracentrifugation of Fig. 1 B only
